In the RNAGym collection of RNA variant scans (doi:10.1093/molbev/msab373):

B1: Azoarcus group I ribozyme (parent)
chain: GUGCCUUGCGCCGGGAAACCACGCAAGGGAUGGUGUCAAAUUCGGCGAAACCUAAGCGCCCGCCCGGGCGUAUGGCAACGCCGAGCCAAGCUUCGGCGCCUGCGCCGAUGAAGGUGUAGAGACUAGACGGCACCCACCUAAGGCAAACGCUAUGGUGAAGGCAUAGUCCAGGGAGUGGCGAAAGUCACACAAACCGG

Variants of: B1
Assay: reverse-splicing fitness (ratio to wild type); higher = more active; in vitro selection; Mg2+ level not given
Outline: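 An in vitro group I ribozyme library with randomized positions was T7-transcribed and gel-purified. In triplicate, 10 pmol RNA in EPPS pH 7.5 was reacted with 50 pmoles of a 30-nt RNA substrate for 1 h at 37 °C across several added MgCl2 levels (1–48 mM), then stopped with EDTA. Products were reverse transcribed from a substrate-complementary primer, PCR-amplified and sequenced (HiSeq 4000). Fitness is a variant's read proportion after selection over that before, normalised to wild type.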

Point of comparison: A111G A120U A145G C150A U176C, reverse-splicing fitness 0.0581. Against it:
- A111G A120U A145C C150U U176G — lower, 0.0448
- A111G A120U A145C C150U U176C — lower, 0.055
- A111G A120U A145C C150U U176A — higher, 0.0932
- A111G A120U A145U C150G C169A U176C — lower, 0.00355
- A111G A120U A145U C150G C169A U176G — lower, 0.0022
- A111G A120U A145U C150G C169A U176A — lower, 0.00281
- A111G A120G C150U C169U — higher, 0.142
- A111G A120G C150U C169G — higher, 0.177
- A111G A120G C150U C169A — higher, 0.0914
- A111G A120U A145C C150A — lower, 0.0434
- A111G A120U A145C C150G — higher, 0.116
- A111G A120U A145C C150U — higher, 0.264
- A111G A120U A145G C150A U176G — lower, 0.0119
- A111G A120U A145G C150A U176A — lower, 0.0506
- A111G A120U A145C C169G U176A — lower, 0.00876
- A111G A120U A145C C169G U176G — lower, 0.00205
- A111G A120U A145C C169G U176C — lower, 0.00699
- A111G A120U A145G C150U C169U — higher, 0.111
- A111G A120U A145G C150U C169A — lower, 0.00841
- A111G A120U A145G C150U C169G — higher, 0.0623
- A111G A120U A145C C169U U176A — lower, 0.0207
- A111G A120U A145C C169U U176C — lower, 0.0146
- A111G A120U A145C C169U U176G — lower, 0.00329
- A111G A120G A145U C150U C169A — higher, 0.114
- A111G A120G A145U C150U C169G — higher, 0.206
- A111G A120G A145U C150U C169U — higher, 0.157
- A111G A120G A145U C150U C169G U176A — lower, 0.0574
- A111G A120G A145U C150U C169G U176C — higher, 0.0783
- A111G A120G A145U C150U C169G U176G — lower, 0.00556
- A111G A120U A145G C169U U176A — lower, 0.0227
- A111G A120U A145G C169U U176G — lower, 0.0035
- A111G A120U A145G C169U U176C — lower, 0.0414
- A111G A120U A145C C150A C169A U176C — lower, 0.00206
- A111G A120U A145C C150A C169A U176A — lower, 0.00282
- A111G A120U A145C C150A C169A U176G — lower, 0.00177
- A111G A120U A145G C150G C169G U176G — lower, 0.00311
- A111G A120U A145G C150G C169G U176A — lower, 0.00719
- A111G A120U A145G C150G C169G U176C — lower, 0.00396
- A111G A120G U176A — higher, 0.0836
- A111G A120G U176C — higher, 0.117
- A111G A120G U176G — lower, 0.0093
- A111G A120G C150U C169U U176C — higher, 0.0607
- A111G A120G C150U C169U U176G — lower, 0.00845
- A111G A120G C150U C169U U176A — lower, 0.0545
- A111G A120G A145U C150G C169U U176G — lower, 0.00442
- A111G A120G A145U C150G C169U U176A — lower, 0.0148
- A111G A120G A145U C150G C169U U176C — lower, 0.0171
- A111G A120G A145U C150U — higher, 0.19
- A111G A120G A145U C150A — lower, 0.0301
- A111G A120G A145U C150G — lower, 0.0319
- A111G A120U A145G U176C — higher, 0.386
- A111G A120U A145G U176A — higher, 0.344
- A111G A120U A145G U176G — higher, 0.124
- A111G A120U A145G C150U C169U U176C — lower, 0.0273
- A111G A120U A145G C150U C169U U176G — lower, 0.00334
- A111G A120U A145G C150U C169U U176A — lower, 0.0147
- A111G A120U A145U C150G C169A — lower, 0.00344
- A111G A120U A145U C150G C169G — lower, 0.0082
- A111G A120U A145U C150G C169U — lower, 0.012
- A111G A120U A145G C150G — higher, 0.0771
- A111G A120U A145G C150U — higher, 0.611
- A111G A120U A145G C150A — higher, 0.148
- A111G A120G A145G C150U U176C — higher, 0.0905
- A111G A120G A145G C150U U176A — higher, 0.0693
- A111G A120G A145G C150U U176G — lower, 0.00986
- A111G A120U A145U C150U U176C — higher, 0.279
- A111G A120U A145U C150U U176G — higher, 0.0789
- A111G A120U A145U C150U U176A — higher, 0.265
- A111G A120U A145C C150U C169A — lower, 0.0024
- A111G A120U A145C C150U C169U — lower, 0.0277
- A111G A120U A145C C150U C169G — lower, 0.0196
- A111G A120U A145U C150A C169U U176G — lower, 0.00172
- A111G A120U A145U C150A C169U U176A — lower, 0.00329
- A111G A120U A145U C150A C169U U176C — lower, 0.00339
- A111G A120U A145C C150G C169A U176C — lower, 0.00245
- A111G A120U A145C C150G C169A U176A — lower, 0.00204
- A111G A120U A145C C150G C169A U176G — lower, 0.00216
- A111G A120U A145U C169A — lower, 0.00636
- A111G A120U A145U C169G — higher, 0.0912
- A111G A120U A145U C169U — higher, 0.122
- A111G A120G A145U C150A C169A U176A — lower, 0.0157
- A111G A120G A145U C150A C169A U176C — lower, 0.015
